Measured values as given in IntAct's records for PubMed 33368531.

Target: T1, ofd1_human OFD1 (UniProt O75665)
T1 sequence: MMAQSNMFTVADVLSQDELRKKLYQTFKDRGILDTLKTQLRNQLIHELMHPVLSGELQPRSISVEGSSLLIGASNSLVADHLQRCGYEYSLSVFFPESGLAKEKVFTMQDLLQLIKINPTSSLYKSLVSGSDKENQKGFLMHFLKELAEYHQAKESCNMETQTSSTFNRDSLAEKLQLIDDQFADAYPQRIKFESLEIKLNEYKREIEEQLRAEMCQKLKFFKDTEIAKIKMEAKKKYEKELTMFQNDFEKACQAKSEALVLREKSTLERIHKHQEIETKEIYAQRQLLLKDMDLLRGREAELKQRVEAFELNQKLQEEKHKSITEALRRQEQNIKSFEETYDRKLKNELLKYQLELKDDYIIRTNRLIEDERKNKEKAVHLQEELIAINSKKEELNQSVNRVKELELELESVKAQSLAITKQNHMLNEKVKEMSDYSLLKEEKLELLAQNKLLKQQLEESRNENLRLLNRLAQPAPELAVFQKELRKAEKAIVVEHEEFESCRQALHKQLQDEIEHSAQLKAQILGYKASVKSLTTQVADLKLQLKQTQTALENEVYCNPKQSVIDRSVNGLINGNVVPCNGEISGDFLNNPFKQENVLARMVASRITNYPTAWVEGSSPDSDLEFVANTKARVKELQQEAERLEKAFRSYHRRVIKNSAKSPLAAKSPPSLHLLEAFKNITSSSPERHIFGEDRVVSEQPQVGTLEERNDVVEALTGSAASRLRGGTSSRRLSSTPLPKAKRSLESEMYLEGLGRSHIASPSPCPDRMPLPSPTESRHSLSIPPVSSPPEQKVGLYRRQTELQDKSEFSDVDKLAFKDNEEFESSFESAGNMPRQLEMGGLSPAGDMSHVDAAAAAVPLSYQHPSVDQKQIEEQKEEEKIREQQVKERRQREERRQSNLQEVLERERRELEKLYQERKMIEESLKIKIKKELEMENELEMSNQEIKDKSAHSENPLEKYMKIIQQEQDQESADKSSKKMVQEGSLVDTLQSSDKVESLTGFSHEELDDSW

- effect of a mutation on the interaction: disrupting interaction
Substance: Microtubule-associated protein 1 light chain 3 beta (Homo sapiens) (from UniProt Q9GZQ8) F52A;L53A
